# Data reported in the supplement of paper PMC12764529.
# ± gives the half width of the 95% confidence interval.
# Experiments:
# [1] = folding stability dG unfold from trypsin proteolysis; higher = more stable
# Method in brief: (§1)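 Designed mini-proteins with no cysteine and under 80 residues were kept only if AlphaFold2 dimer inter-PAE was above 15. In a PA-tagged cDNA display construct, they were digested with trypsin and chymotrypsin and then sequenced. K50 was inferred by Bayesian fitting of counts, and unfolding free energy was derived per protease or combined against a sequence-predicted unfolded-state K50 and a shared folded-state K50.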
# [2] = folding stability dG unfold (combined trypsin and chymotrypsin); higher = more stable
# Method in brief: as §1
# [3] = folding stability dG unfold from chymotrypsin proteolysis; higher = more stable
# Method in brief: as §1
Sequence,folding stability dG unfold [1] [kcal/mol],folding stability dG unfold [2] [kcal/mol],folding stability dG unfold [3] [kcal/mol]
SAGGSAGGSAGGEPEVKVELRVELDEDGRLRVTLKVEFEDGTVERELELEAPVVFFPPEESAGGSAGGSAGG [r7_992_TrROS_Hall],2.73 ± 0.18,2.49 ± 0.16,2.07 ± 0.093
SAGGSAGGSAGGEPIYIRINNYYIVINLDDGNIRVYPPMKGKKKKVPANDIKPIDPGDISAGGSAGGSAGGS [r10_709_TrROS],1.18 ± 0.025,1.07 ± 0.076,0.813 ± 0.071
SAGGSAGGSAGGETIELKLPNGKVLRVEKDKEKGKTYKIYDTKTKKLVKTFKSKEALKKASAGGSAGGSAGG [r7_72_TrROS_Hall],0.755 ± 0.07,1.02 ± 0.11,1.19 ± 0.17
SAGGSAGGSAGGETVVLVTYDKETKTLTVQTFELENGELKTTTKTVTLTDEQLESLPPASAGGSAGGSAGGS [r10_291_TrROS_Hall],1.39 ± 0.07,1.87 ± 0.18,1.99 ± 0.083
SAGGSAGGSAGGEVIEIELPGKTKEEIEEAIKKLPENYKIEIKKDENGRIRVRIFRKEDLSAGGSAGGSAGG [r7_662_TrROS_Hall],1.6 ± 0.15,1.44 ± 0.42,1.5 ± 0.17
SAGGSAGGSAGGFKLPPGKPIEFPIKHGGEPYPVEIWRDPNKLMIHFPGNNQWIPADDIKSAGGSAGGSAGG [r7_37_TrROS],-0.828 ± 0.45,-0.931 ± 0.58,-0.589 ± 0.87
SAGGSAGGSAGGFNIEVVPGEPGWVIKIEFPDHPITAFVDPEDGKLWIYNPDNGMIFPLSAGGSAGGSAGGS [r10_434_TrROS],2.2 ± 0.042,2.03 ± 0.077,1.78 ± 0.084
SAGGSAGGSAGGFTIKIETRPMPMFSKDGKPLAEMNMYRIKIEVPDMPPGLADKLIDLIQSAGGSAGGSAGG [r7_450_TrROS],1.66 ± 0.11,2.67 ± 0.22,2.67 ± 0.097
SAGGSAGGSAGGGIKIKIISVKPLPDGSVLVKAKIIFPDGKEKEILILFNKNGEIKIFEKSAGGSAGGSAGG [r7_860_TrMRF],3.04 ± 0.11,3.71 ± 0.087,4.03 ± 0.069
SAGGSAGGSAGGGKKVKVIIAADKPEEAEKAIEKLEKETDLPLEDVIVIPREEAEKLGLASAGGSAGGSAGG [r7_84_TrMRF],-1.27 ± 0.82,-0.553 ± 0.47,-0.574 ± 0.14
SAGGSAGGSAGGGLRKITFETPLSDFEELVKALGLNVVSAEVEPGAGGLAKVTLLVEEGSAGGSAGGSAGGS [r10_999_TrMRF],1.04 ± 0.013,1.55 ± 0.041,1.843 ± 0.016
SAGGSAGGSAGGGMAITTRPGSSEVSTTPVPSDVTASTTTPLASGEPVEVTYERVGDPTLSAGGSAGGSAGG [r7_21_JUSTAS],0.405 ± 0.022,0.0781 ± 0.079,-0.525 ± 0.16
SAGGSAGGSAGGGMESKTTVTEEFSPEEVKTVTTVTTYPDGSVTETPENVKVPPGALAGSAGGSAGGSAGGS [r10_280_JUSTAS],0.1 ± 0.053,1.49 ± 0.11,1.92 ± 0.13
SAGGSAGGSAGGGMSFKKRKGSISLTLRVTLTLPNGTPATLDIELELEEETVEPVYPELESAGGSAGGSAGG [r7_926_JUSTAS],2.87 ± 0.086,4.19 ± 0.24,4.76 ± 0.14
SAGGSAGGSAGGGMSSAPPVTITPVSETTERLPNGTLVRTTTYAVDDGSTVTTTTVTPVSSAGGSAGGSAGG [r7_948_JUSTAS],-0.127 ± 0.099,0.602 ± 0.1,0.952 ± 0.069
SAGGSAGGSAGGGMSSVSLVKTSTITVGNGTVKLETLSYPDSSFVRTTLPNGKDVVEPLPSAGGSAGGSAGG [r7_655_JUSTAS],-0.561 ± 0.16,-0.089 ± 0.13,0.105 ± 0.1
SAGGSAGGSAGGGMSTAVLKIDDKWVPVRIYPDSVVIEYPDGSTKTISLSEIPENLIELPSAGGSAGGSAGG [r7_748_JUSTAS],2.2 ± 0.12,1.43 ± 0.15,0.547 ± 0.07
SAGGSAGGSAGGGMSVKVTVKDPVNGTTSVYELSVPPGVSNVVINVKTPDNSTVTKVTLESAGGSAGGSAGG [r7_687_JUSTAS],0.754 ± 0.09,1.11 ± 0.11,1.28 ± 0.034
SAGGSAGGSAGGGMTTTKTEVSFSPAGGLVTTKSTERLPGTGELKEVTSVTPLASSGTTSAGGSAGGSAGGS [r10_296_JUSTAS],0.0156 ± 0.034,0.622 ± 0.081,0.846 ± 0.034
SAGGSAGGSAGGGMTVEESVFLDPSGTRITVTTRVFDDGTVVTETEVTPLPPTPNPALASAGGSAGGSAGGS [r10_878_JUSTAS],1.2 ± 0.035,1.11 ± 0.15,1.08 ± 0.066
SAGGSAGGSAGGGPDATPVTTTYVDLNLTPVSTETDPETGAVTVTYKLPGETITVTLPASAGGSAGGSAGGS [r10_962_JUSTAS],-0.629 ± 0.13,0.573 ± 0.22,1.11 ± 0.42
